# Molecular target: DARPin H10-2-G3
# Experiment: SPR; G3 DARPin amine-coupled (about 1,200 RU) on a GLC chip, ProteOn XPR36; HER2 constructs injected as analyte (One-Shot Kinetics, 30 uL/min, 120 s); 25°C; HBS-EBP+ (10 mM HEPES, 150 mM NaCl, 3 mM EDTA, 0.1% BSA, 0.05% Tween 20); global fit to a 1:1 model, KD = kd/ka
Substance,Kd [nM],koff [s⁻¹],kon [M⁻¹ s⁻¹]
"HER2 extracellular domain, residues 1-623, Leu 525→Ala (from UniProt P04626 23-645) (domain or fragment)",265,0.0393,149000
"HER2 extracellular domain, residues 1-623, Phe 555→Ala (from UniProt P04626 23-645) (domain or fragment)",210,0.0384,184000
"HER2 extracellular domain, residues 1-623, Ser 551→Ala (from UniProt P04626 23-645) (domain or fragment)",12.8,0.0035,285000
"HER2 extracellular domain, residues 1-623, Val 552→Ala (from UniProt P04626 23-645) (domain or fragment)",380,0.064,169000
"human epidermal growth factor receptor 2 (HER2) extracellular domain, residues 1-623, wild type (from UniProt P04626 23-645) (domain or fragment)",3.3,0.00107,322000

# Source: paper PMC3602593
